Reference: US20230035798A1 (CAPELLA BIOSCIENCE, published 2023)

T1: membrane LIGHT A190S (human, UniProt O43557 1-240)
T1 chain: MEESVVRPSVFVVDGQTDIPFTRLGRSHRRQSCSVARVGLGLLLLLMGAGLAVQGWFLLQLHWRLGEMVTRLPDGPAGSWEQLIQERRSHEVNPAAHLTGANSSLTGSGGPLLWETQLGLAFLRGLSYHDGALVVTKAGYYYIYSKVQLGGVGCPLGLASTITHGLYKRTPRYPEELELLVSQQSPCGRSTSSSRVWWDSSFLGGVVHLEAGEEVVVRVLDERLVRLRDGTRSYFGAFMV

T2: membrane LIGHT S193A (human, UniProt O43557 1-240)
T2 chain: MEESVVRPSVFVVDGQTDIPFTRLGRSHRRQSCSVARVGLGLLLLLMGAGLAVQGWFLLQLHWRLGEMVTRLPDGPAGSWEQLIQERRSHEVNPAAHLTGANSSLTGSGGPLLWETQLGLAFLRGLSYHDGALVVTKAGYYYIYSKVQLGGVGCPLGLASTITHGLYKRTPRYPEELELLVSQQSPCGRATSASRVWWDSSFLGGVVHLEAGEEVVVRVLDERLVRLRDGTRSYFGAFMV

T3: membrane LIGHT T191A (human, UniProt O43557 1-240)
T3 chain: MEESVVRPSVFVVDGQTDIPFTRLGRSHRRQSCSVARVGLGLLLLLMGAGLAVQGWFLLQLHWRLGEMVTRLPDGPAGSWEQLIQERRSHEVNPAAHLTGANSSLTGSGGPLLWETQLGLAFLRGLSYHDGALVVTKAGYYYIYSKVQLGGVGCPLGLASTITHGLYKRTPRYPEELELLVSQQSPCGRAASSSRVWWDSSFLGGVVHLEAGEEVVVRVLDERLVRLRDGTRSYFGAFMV


How the values were obtained:
membrane LIGHT A190S = target: T1, membrane LIGHT A190S; test: flow cytometry, transfected HEK293FF, mAb at EC50
Experimental: (§1) The day of transfection the cells were seeded in a 24-well plate at 0.6×10⁶ cells/well. Lipofectamine 2000 (ThermoFisher scientific), 3 μl, was mixed with 50 μl OptiMEM medium (GIBCO) and then added to 50 μl Opti-MEM medium containing 3 ug plasmid DNA and incubated for 20 min at RT to form DNA-Lipofectamine 2000 complexes which were then added to the HEK293FF cells and incubated at 37° C., 5% CO₂ for 24 hours. For each construct, in duplicate, 0.60×10⁶ cells/well were used in a 96 well round bottom plate. Cells were centrifuged for 3 minutes at 300×g at 4° C., the supernatant discarded and the cells washed with 150 μl FACS buffer (0.5% FBS in phosphate buffered saline). This process was repeated 3 times. […] The wells were washed 3 times as above and 50 μl/well of goat anti-human IgG FITC (1:1500 dilution in FACS buffer, SIGMA F9512-2ML) or goat anti-mouse APC (1/500 dilution in FACS buffer, BDBioscience 550826), as appropriate, was added to the wells and incubated for 30 min at 4° C. protected from the light, with shaking. The cells were then washed as above, resuspended in 100 μl of FACS buffer and binding of the antibodies to the constructs was measured using flow cytometry and a total of 10,000 cells were acquired for each sample. Controls of buffer and secondary antibody only as well as HEK293FF non transfected cells were also used.

membrane LIGHT S193A = target: T2, membrane LIGHT S193A; test: flow cytometry, transfected HEK293FF, mAb at EC50
Experimental: as §1

membrane LIGHT T191A = target: T3, membrane LIGHT T191A; test: flow cytometry, transfected HEK293FF, mAb at EC50
Experimental: as §1

[1] = target: T4, human LIGHT (TNFSF14), full length, membrane-bound (214E allele) (human, UniProt O43557 1-240); test: DcR3-His (1 nM) competition, EL4-LIGHT, flow cytometry; 11.1 nM
T4 construct: also called membrane LIGHT; human membrane LIGHT
Experimental: (§2) EL4-LIGHT cells (0.25×10⁶) were preincubated with anti-membrane LIGHT mAbs (0-300 nM) for 15 min at 4° C. followed by incubation with DcR3-His tagged (1 nM, Creative BioMart; ref: TNFRSF6B-552H, lot: 962512) for 30 min at 4° C. The samples were then incubated with mouse anti-histag antibody (diluted 1:500, Biolegend, cat. no. 652502) for 30 minutes at 4° C., followed by incubation with anti-mouse APC (dil 1:500, BDBiosciences, cat. no. 550826) for 30 minutes at 4° C. The tubes were washed three times after each of the detection antibody stages and flow cytometry analysis was performed. Specific mean fluorescence intensity (MFI) obtained from the binding of DcR3-His to LIGHT on EL4 cells were used to determine the levels of competition binding.
(§3) In humans, LIGHT is neutralized by DcR3, a unique soluble member of the TNFR superfamily, which tightly binds LIGHT (both soluble and membrane forms) and inhibits its interactions with HVEM and LTβR. A major binding determinant for DcR3 neutralization is the region T170-E178 on LIGHT (Liu et al. Structure 2014: 9; 1252-1262). […] In contrast the anti-LIGHT mAb F19, (from EP2292663) which binds both soluble LIGHT and membrane LIGHT equally well completely displaces DcR3 from binding to membrane LIGHT highlighting a surprising an important functional difference between the anti-membrane LIGHT mAbs of this invention and other neutralizing anti-LIGHT mAbs that have been raised against or screened against soluble LIGHT.

[2] = target: T4, human LIGHT (TNFSF14), full length, …; test: flow cytometry, EL4-LIGHT cells
Experimental: The EC50 of the 7 mAbs were calculated from binding to EL4-LIGHT cells (Table 7) which represents a more accurate comparison of the EC50's than utilising transiently transfected LIGHT cells. […] Non-linear regression analysis was performed to determine the functional binding affinity measurement or EC50 for each mAb. A range of functional affinities was observed.
Target sequence in this assay (O43557 whole entry K214E): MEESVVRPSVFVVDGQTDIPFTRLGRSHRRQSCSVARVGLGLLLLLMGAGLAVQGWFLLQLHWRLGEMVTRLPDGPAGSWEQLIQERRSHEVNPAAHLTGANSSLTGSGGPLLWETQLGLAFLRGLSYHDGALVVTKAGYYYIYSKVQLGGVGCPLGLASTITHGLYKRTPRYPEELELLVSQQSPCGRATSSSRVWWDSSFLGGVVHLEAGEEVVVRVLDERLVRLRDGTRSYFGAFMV

[3] = target: T4, human LIGHT (TNFSF14), full length, …; test: DcR3-His (1 nM) competition, EL4-LIGHT, flow cytometry; 33.3 nM
Experimental: as §2, §3
Target sequence in this assay (O43557 whole entry K214E): as above

Binder	binding, % of WT (membrane LIGHT A190S)	binding, % of WT (membrane LIGHT S193A)	binding, % of WT (membrane LIGHT T191A)	DcR3-His binding, % of irrelevant mAb [1]	EC50 [2]	DcR3-His binding, % of irrelevant mAb [3]
2E08 (antibody, human IgG4, V domains shown, chimeric human IgG4 (S-to-P, L-to-E at 248), human CL; also called Parental 2E08) VH: QVQMKESGAELVRPGVSVKISCKGSGYTFTDYAIHWVKQSHAKTLEWIGVISTYYGDASYNQKFKGKATMTVDKSSSTAYMELARLTSDDSAIYYCARSRGEYGNYDAMDYWGQGTSVTVSS VL: DIVLTQSPASLAVSLGQRATISCKASQSVDYDGDSYMNWYQQKPGQPPKLLIYAASNLESGIPARFSGSGSGTDFTLNIHPVEEEDAATYYCQQSNEDPLTFGAGTKLELK	93%	0%	22%	85.7%	1.8 nM	78.4%
2B11 (antibody, human IgG4, V domains shown, chimeric human IgG4 (S-to-P, L-to-E at 248), human CL; also called Parental 2B11) VH: EVQLVESGAELVRPGVSVKISCKGSGYTFTDYAIHWVKQSHAKSLEWIGVISTYYGDASYNQKFKGKATMTVDKSSSTAYMELARLTSEDSAIYYCARSRGEYGNYDAMDYWGQGTSVTVSS VL: DIVLTQSPASLAVSLGQRATISCRASESVDSYGNSFMHWYQQKPGQPPKLLIYRASNLESGIPARFSGSGSRTDFTLTINPVEADDVATYYCQQSNEDPYTFGGGTKLEIK	52%	0%	1%	77.5%	0.3 nM	79.8%
3A07 (antibody, human IgG4, V domains shown, chimeric human IgG4 (S-to-P, L-to-E at 248), human CL; also called Parental 3A07) VH: QVQLQQSGAELVRPGAPVTLSCKASDYTFTDSEIHWVKQTPVHGLEWIGEIDPETGGTAYNQKFKGKATLTADKSSSTAYMELRSLTSEDSAVYYCSRETDYFFDYWGQGTTLTVSS VL: ENVLTQSPAIMSASPGEKVTMTCSASSSVSYMYWYQQRPGSSPRLLIYDTSNLASGVPVRFSGSGSGTSYSLTISRMEAEDAATYYCQQWSSYPLTFGSGTKLEIK	47%	0%	4%	75.8%	0.14 nM	67.5%
3B04 (antibody, human IgG4, V domains shown, chimeric: mouse variable domains on human IgG4 HC (S-to-P and L-to-E at 248) and human CL; also called Parental 3B04; 3B04 chimeric) VH: QVQLQQPGAELVRPGASVTLSCKASGYTFTDYEMHWVKQTPVHGLEWIGEIDPETGDTAYSQKFKGKATLTADKSSSTAYMEFRSLTSEDSAVYYCSRETDYFFDYWGQGTTLTVSS VL: DIQMTQTPASLSASVGETVTITCGASENIYGALNWYQRKQGKSPQLLIYGATNLADGMSSRFSGSGSGRQYSLKISSLHPDDFATYYCQNVLTTPWTFGGGTKLEIKR	68%	0%	2%	78.3%	0.15 nM	85.1%
3D12 (antibody, human IgG4, V domains shown, chimeric: mouse variable domains on human IgG4 HC (S-to-P and L-to-E at 248) and human CL; also called Parental 3D12; 3D12 chimeric) VH: QVQLQQPGAELVRPGASVTLSCKASDYTFTDSEIHWVKQTPVHGLEWIGEIDPETGGTAYNQKFKGKATLTADKSSSTAYMELRSLTSEDSAVYYCSRETDYFFDYWGQGTTLTVSS VL: DIQMTQSPASLSASVGETVTITCGASENIYGALNWYQRKQGKSPQLLIYGATNLADGMSSRFSGSGSGRQYSLKISSLHPDDVATYYCQNVLSTPWTFGGGTKLEIKR	82%	0%	8%	61.1%	0.2 nM	78.1%
3C10 (antibody, human IgG4, V domains shown, chimeric human IgG4 (S-to-P, L-to-E at 248), human CL; also called Parental 3C10) VH: EVQLQQSGAELVRPGASVTLSCKASDYTFTDSEIHWVKQTPVHGLEWIGEIDPETGGTAYNQKFKGKATLTADKSSSTAYMELRSLTSEDSAVYYCSRETDYFFDYWGQGTTLTVSS VL: DVVMTQTPAIMSASPGEKVTMTCSASSSVSYMYWYQQKPGSSPRLLIYDTSNLASGVPVRFSGSGSGTSYSLTISRMEAEDAATYYCQQWSSYPLTFGAGTKLELK	40%	0%	3%	83.6%	0.16 nM	81.9%
3E09 (antibody, V domains shown, chimeric human IgG4 (S-to-P, L-to-E at 248), human CL; also called Parental 3E09) VH: EVQLVESGGGLVKPGGSLKLSCEASGFTFSDYYMYWVRQTPEKRLEWVAAIGDGGIYTYYADTVKGRFTISRDNAKNILYLQMSSLKSNDTAMYYCARGTGDGFAYWGQGTLVTVS VL: DIVLTQSPASLAVSLGQRATISCRASESVDSYGNSFMHWYQQKPGQPPKLLIYLASNLESGVPARFSGSGSRTDFTLTIDPVEADDAATYYCQQNNEDPYTFGGGTKLEIK	97%	0%	88%	71.1%	8.1 nM	70.5%
